Consider 21 variants from the RNAGym collection of RNA variant scans (doi:10.1073/pnas.2313332121).

B1: TPR t1 (parent)
chain: GACCAAUCUGCCCUCAGAGCUCGAGAACAUCUUCGGAUGCAGAGGAGGCAGGCUUCGGUGGCGCGAUAGCGCCAACGUCCUCAACCUCCAAUGCAUCCCACCACAUGAUGAUGCCUGAAGAGCCUUGGUUUUUUG

Variants of B1 are the subject of this data set. The data set is described as follows: polymerase ribozyme fitness, log enrichment relative to wild type (log ratio); higher = more active; in vitro selection for triplet polymerase activity. In short, it runs like this: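 Both subunits of a heterodimeric triplet polymerase ribozyme were given their own mutant library, built by PCR and transcribed. Each library was annealed with a biotinylated primer, the partner subunit and triplets, incubated frozen at −7 °C, and its extended constructs gel-excised, captured on streptavidin beads and amplified by RT-PCR, all in one round done in triplicate. Fitness is the logarithm of genotype enrichment relative to wild-type enrichment, with replicates averaged by inverse-variance weighting. That logarithm is base 2, and Illumina-sequenced genotypes needed ≥10 input reads and ≥1 read per output.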
Take GACCAAUCUGCCCUCAGAGCUCGAGAACAUCUUCGGAUGAAGAGUAGGCAGGCUUCGGUGGCACGAUAGCGCCAACGUCCUCAACCUCCAAUGCAUCCCACCACAUGAUGAUGCCUGAAGAGCCUUGGUUUUUUG: the “polymerase ribozyme fitness (log ratio)” value is -2.99.
Next, GACCAAUCUGCCCUCAGAGCUCGAGAACAUCUUCGGAUGAAGAGGAGACAGGCUUCGGUGGCGCGAUAGCGCCAACGUCCUCAACCUCCAAUGCAUCCCACCACAUGAUGAUGCCUCAAGAGCCUUGGUUUUUUG: -5.6; GACCAAUCUGCCCUCAGAGCUCGAGAACAUCUUCGGAUGAAGAGGAGGCAGACUUCGGUGGCGCGAUAGCGCCAACGUCCUCAACCUCCAAUGCAUCCCAACACAUGAUGAUGCCUGAAGAGCCUUGGUUUUUUG: -3.1; GACCAAUCUGCCCUCAGAGCUCGAGAACAUCUUCGGAUGAAGAGGAGACAGGCUUCGGUGGCGCGAUAGCGCCAACGUCCUCAACCUCCAAUGCAUCCCACCACAUGAUGAUGCCUGAAGAGCCUUGGUUUUUUG: -2.24.
As to GACCAAUCUGCCCUCAGAGCUCGAGAACAUCUUCGGAUGAAGACGAGGCAGGAUGCGGUGGCGCGAUAGCGCCAACGUCCUCAACCUCCAAUGCAUCCCACCACAUGAUGAUGCCUGAAGAGCCUUGAUUUUUUG, the “polymerase ribozyme fitness (log ratio)” value is -3.45.
GACCAAUCUGCCCUCAGAGCUCGAGAACAUCUUCGGAUGAAGAGGAGACAGGCUACGGUUGCGCGAUAGCGCCAACGUCCUCAACCUCCAAUGCGUCCCACCACAUGAUGAUGCCUGAACAGCCUUGGUUUUUUG: the “polymerase ribozyme fitness (log ratio)” value is -1.07.
Consider GACCAAUCUGCCCUCAGAGCUCGAGAACAUCUUCGGAUGAAGAGUAGGCAGGCUUCGGUGGCACGAUACCGCCAACGUCCUAAACGUCCAAUGCAUCCCAUCACAUGAUGAUGGCUGAAGAGCCUUGGUUUUUUG, for which the “polymerase ribozyme fitness (log ratio)” value was -6.64.
GACCAAUCUGCCCUCAGAGCUCGAGAACAUCUUCGGAUGAAGAGAAGGCAGGCUUUGGUGGCGCGAUAGCGCCAACGUCCUCAACCUCCAAUGCAUCCCACCACAUGAUCAUGCCUGAAGAGCCUUGGUUUUUUG: the “polymerase ribozyme fitness (log ratio)” value is -6.54.
In the case of GACCAAUCUGCCCUCAGAGCUCGAGAACAUCUUCGGAUGAAGAGGAGGCAAGCUUCGGUGGCGCGAUAGCGCCAACGCCCUCAACCUCCAAUGCAUCCCACCACAUGAUGAUGCCUGAAGAGCAUUGGUUUUUUG, the “polymerase ribozyme fitness (log ratio)” value is -3.18.
Take GACCAAUCUGCCCUCAGAGCUCGAGAACAUCUUCGGAUGAAGAGGAGGCAGACUUCGAUGGUGCGAUAGCGCCAACGUCCUCAACCUCCAAUGCAUCCCACCACAUGAUGAUGCCUGAUGAGCCUAGGUUUUUUG: the “polymerase ribozyme fitness (log ratio)” value was -4.
With GACCAAUCUGCCCUCAGAGCUCGAGAACAUCUUCGGAUGAAGAGGAGACAGGCUUCGGUGACGCGAUAGCGCCAACGUCCUCAACCUCCAAAGUAUCCCACCACGUGAUGAUGCCUGAAGAGCCUUGGUUUUUUG, the “polymerase ribozyme fitness (log ratio)” value is -7.09.
Consider GACCAAUCUGCCCUCAGAGCUCGAGAACAUCUUCGGAUGAAGAGGAGGCAGUCUUCGGUGGCUCGAUAGCGCCAACGUCCUCAACCUCCAAUGCAUCCCACCACAUGAUGAAGCCUGAAGAGCCUUGGUUUUUUG, for which the “polymerase ribozyme fitness (log ratio)” value was -2.78.
On to GACCAAUCUGCCCUCAGAGCUCGAGAACAUCUUCGGAUGAAGAGGAGGCAGGCUUCGGUGGCGCGAUAGCGCCAACGUCCUCAACCUCCAAUGCAUCCCACCAUAUGAUUUUGCCUGAAGAGGCGUGGUUUUUUG, for which the “polymerase ribozyme fitness (log ratio)” value was -6.57.
With GACCAAUCUGCCCUCAGAGCUCGAGAACAUCUUCGGAUGAAGAGGAGGCAGGCUUCAGUGGCGCGAUAGCGCCAACGUCCUCAACCUCCAAUGCAUCCCACCACAUGAUGAUGCCUGAAGAGCCUUGGUUUUUUG, the “polymerase ribozyme fitness (log ratio)” value was -3.1.
The figure for GACCAAUCUGCCCUCAGAGCUCGAGAACAUCUUCGGAUGAAGAGGAGGCAGGCUUCGGUAGCGCGAUAGCGCCAACGUCCUCAACCUCCAAUGCAUCCCACCACAUGAUGAUGCCUGAAGAGCCUUGGUUUUUUG is -1.03.
Take GACCAAUCUGCCCUCAGAGCUCGAGAACAUCUUCGGAUGAAUAGGAGGCAGGCUUAGGUGGCGCGAUAGCGCCAACGUCCUCAACCUCCAAUGCAUCCCACCACAUGAUGAUGCCUGAAGAGCCUUGGUUUUUUG: the “polymerase ribozyme fitness (log ratio)” value is -2.35.
For GACCAAUCUGCCCUCAGAGCUCGAGAACAUCUUCGGAUGAAGAAGAGGCAGGCUUCGGUGGCGCGAUAGCGCCAACGCCCUCAACCUCCAAUGCAUCCCACCACAUGAUGAUGCCUGAAGAGCCUUGGUUUUUUG, the “polymerase ribozyme fitness (log ratio)” value was -2.1.
On to GACCAAUCUGCCCUCAGAGCUCGAGAACAUCUUCGGAUGAAGACGAGGGAGGCAUCGGUGGCGCGAUAGCACCAACGUCCUCAACCUCCAAUGCAUCCUACCACAUGAAGAUGCUUGAAGAGCCUUGGUGUUUUG, for which the “polymerase ribozyme fitness (log ratio)” value is -6.71.
For the variant GACCAAUCUGCCCUCAGAGCUCGAGAACAUCUUCGGAUGAAGAGGAGGCAGGCUUCGGUGGCGCGAUAGCGCCAACGUCCUCAACCUCCAAUGCAUCCCACCACAUGAUGAUGACUGAAGAGCCUUGGUUUUUUA, the “polymerase ribozyme fitness (log ratio)” value is -3.46.
As for GACCAAUCUGCCCUCAGAGCUCGAGAACAUCUUCGGAUGAAGAGGAGGCAGACUUCGGUGGCGCGAUAGCGUCAACGUCCUCAACCUCCAGUGCAUCCCACCACAUGAUGAUGCCUGAAGAGCCUUGGUUUUUUG, the “polymerase ribozyme fitness (log ratio)” value was -4.17.
Turning to GACCAAUCUGCCCUCAGAGCUCGAGAACAUCUUCGGAUGAAGAGGAGGCAGGCUUCGGUGGCGCGAUAGCGCCAACGUCCUCAACCUCCAAUGCAUCCCAUCACAUGAUGAUGCCUGAAGAGCCUUGGUUUUUUG, the “polymerase ribozyme fitness (log ratio)” value is -1.61.
